Columns and labels:
[1] = target: the molecule itself; test: native MS; liquid native MALDI mass spectrometry of endogenous ARNT pulled down from total kidney lysates of LB100-treated UUO mice; eluted in 0.3% TFA, mixed with ammonium acetate buffer (100 mM, pH 9), glycerol
[2] = target: the molecule itself; test: immunoprecipitation and MALDI-TOF mass spectrometry; endogenous ARNT pulled down from extracts of LB100-treated MCT cells with ARNT antibody, eluted with 0.3% TFA, sinapinic acid matrix, linear positive mode

Protein	stoichiometry N [1]	stoichiometry N [2]
Endogenous ARNT of mouse kidney (UUO-challenged C57BL/6 mice) (natural protein, Aryl hydrocarbon receptor nuclear translocator (ARNT), endogenous in kidney tissue of C57BL/6 mice; source: endogenous, total kidney lysate of mice, immunoprecipitated with ARNT antibody) not shown	2	
Endogenous ARNT of mouse tubular epithelial cells (MCT) (natural protein, Aryl hydrocarbon receptor nuclear translocator (ARNT), endogenous in the murine proximal tubular epithelial cell line MCT; source: endogenous, MCT cell extract, immunoprecipitated with ARNT antibody) not shown		2
